Measured values as given in PMC1904291.
Residue numbers refer to the chain shown, from its start.

How the values were obtained:
Assay in all cases: EMSA
I-CreI Δ1 = target: T1, I-CreI Δ1 (UniProt P05725 1-137)
T1 sequence: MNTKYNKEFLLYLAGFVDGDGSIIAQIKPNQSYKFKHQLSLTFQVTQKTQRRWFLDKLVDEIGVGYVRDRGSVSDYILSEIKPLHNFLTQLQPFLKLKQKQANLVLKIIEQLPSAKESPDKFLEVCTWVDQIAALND

I-CreI GG = target: T2, I-CreI GG (UniProt P05725 1-163, K142G;T143G)
T2 sequence: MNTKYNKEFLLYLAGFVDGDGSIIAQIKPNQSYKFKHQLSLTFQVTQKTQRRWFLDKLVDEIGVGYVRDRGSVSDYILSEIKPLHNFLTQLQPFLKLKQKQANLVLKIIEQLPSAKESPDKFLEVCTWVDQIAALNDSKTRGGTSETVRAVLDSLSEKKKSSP

I-CreI S138A = target: T3, I-CreI S138A (UniProt P05725 1-163, S138A)
T3 sequence: T2 sequence with S138A, G142K, G143T

I-CreI AM = target: T4, I-CreI AM (UniProt P05725 1-163, S138A;K139M)
T4 sequence: T2 sequence with S138A, K139M, G142K, G143T

I-CreI K139M = target: T5, I-CreI K139M (UniProt P05725 1-163, K139M)
T5 sequence: T2 sequence with K139M, G142K, G143T

I-CreI = target: T6, I-CreI (UniProt P05725 1-163)
T6 sequence: T2 sequence with G142K, G143T

B1: 6-FAM I-CreI target duplex (dsDNA)
DNA 1: GCAAAACGTCGTGAGACAGTTTGC
DNA 2: GCAAACTGTCTCACGACGTTTTGC
binding result (I-CreI Δ1): no binding
Kd (I-CreI GG): 50 nM
Kd (I-CreI S138A): 250 nM
Kd (I-CreI AM): 1240 nM
Kd (I-CreI K139M): 110 nM
Kd (I-CreI): 0.2 nM
